Source: patent publication US20260209363A1 (Chugai, published 2026)
Each block holds one binder with its values, some of them ahead of it.

Legend:
human soluble IL-6R [1] = target: T1, human soluble IL-6R (human, UniProt P08887 20-357, limits assumed); test: Gyrolab xP immunoassay of antibody-antigen complex in C57BL/6J mouse plasma (albumin present), 1 nM antibody, 4 nM antigen
T1 construct: Soluble form; also called sIL6R; Human IL-6R
T1 sequence (looked up): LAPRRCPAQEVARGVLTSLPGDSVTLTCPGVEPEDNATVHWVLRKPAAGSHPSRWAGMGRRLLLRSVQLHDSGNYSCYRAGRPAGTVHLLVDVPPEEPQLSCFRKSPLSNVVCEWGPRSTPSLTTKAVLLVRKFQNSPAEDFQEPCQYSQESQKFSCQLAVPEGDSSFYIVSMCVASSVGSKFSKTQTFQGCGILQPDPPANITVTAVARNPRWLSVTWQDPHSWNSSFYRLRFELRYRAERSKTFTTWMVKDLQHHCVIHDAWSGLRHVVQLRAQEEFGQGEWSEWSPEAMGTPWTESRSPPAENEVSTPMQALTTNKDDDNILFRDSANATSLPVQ

rat albumin = target: T2, rat albumin (rat, UniProt P02770 25-608); test: inferred from reduced antigen complex in rat plasma (Gyrolab xP)
T2 construct: also called albumin in SD rat plasma

human soluble IL-6R [2] = target: T1, human soluble IL-6R; test: SPR (Biacore T200), antibody captured on Protein G, human IL-6R as analyte, 37 degrees C, no albumin
Method: Binding activities of the produced albumin switch molecules against human IL-6R were evaluated using Biacore T200 (Cytiva). As the running buffer, 50 mM Na Phosphate (pH 7.4), 150 mM NaCl, 0.05% Tween20 was used, and the evaluation was performed at 37 degrees C. First, Protein G (CALBIOCHEM) was used as a ligand-capturing molecule. Protein G (CALBIOCHEM) was solid-phased on a Series S Sensor Chip CM4 (Cytiva) using an Amine Coupling Kit (Cytiva). Antibody solution prepared using the running buffer was allowed to interact with this CM4 sensor chip to capture approximately 200 RU of the antibody. Human IL-6R used in the present measurement was prepared by an approach described in WO2018097307 (Example 3-2). Human IL-6R was diluted to 0, 100, and 400 nM with the running buffer, and allowed to bind to the captured antibody. The chip was regenerated using 3 M MgCl₂, and measurements were performed by repeatedly capturing the antibodies. Dissociation constant (KD) of each antibody for human IL-6R was calculated using Biacore T200 Evaluation Software 2.0. Specifically, the association rate constant ka (L/mol/s) and the dissociation rate constant kd (1/s) were calculated by global fitting of the sensorgrams obtained by measurement with the 1:1 Langmuir binding model, and the dissociation constant KD (mol/L) was calculated from these values.

human soluble IL-6R [3] = target: T1, human soluble IL-6R; test: in vivo KD in mouse plasma (albumin present), from total antibody, free and bound sIL6R 5 min after sIL6R; antibody 1 mg/kg IV
Method: (§1) Next, free sIL6R in plasma was measured. The concentration of free sIL6R in plasma was measured on a fully automated ELISA system (Gyrolab xP workstation). First, sIL6R prepared at 23.4, 46.9, 93.8, 188, 375, 750, and 1500 ng/mL using a Protein-Free (PBS) Blocking Buffer (Thermo Scientific) was used as solutions for preparing the calibration curve. Mouse plasma samples were used in the measurements without diluting them. A solution of biotin-labeled H54 diluted to 10 micro g/mL using a Protein-Free (PBS) Blocking Buffer was used as a solution of the sIL6R-capturing molecule. Alexa Fluor (registered trademark) 647-labeled anti-human IL-6R antibody (R&D Systems) diluted to 1 micro g/mL using a Protein-Free (PBS) Blocking Buffer was used as a solution of the human IL-6R-detection molecule. PBS (pH 7.4) containing 0.05% TWEEN was used as a washing solution. The calibration curve solutions, mouse plasma samples, sIL6R-capturing molecule solution, sIL6R-detection molecule solution, and the washing solution were placed onto a PCR plate, and then the PCR plate was sealed with a plate sealer. After the PCR plate and the Bioaffy 200 disc were placed in the Gyrolab xP workstation, measurements were taken. Using the data processed by the Gyros Evaluater 3.6.2.30 software and the calibration curve concentrations, the concentration of free sIL6R in plasma was calculated by logistic regression using the XLfit 5.5.0.5 software.
Additionally, bound sIL6R in plasma was measured. The concentration of bound sIL6R in plasma was measured on an electrospray ionization mass spectrometer connected to a high-performance liquid chromatography (LC/ESI-MS/MS). First, H54//IC17 and sIL6R were mixed, and solutions for preparing the calibration curve of bound sIL6R were prepared at theoretical plasma concentrations of 0.0468, 0.467, 4.60, and 20.1 nmol/mL. The solutions for preparing the calibration curve and 1 or 2 micro L of a plasma sample were added to 75 or 150 micro g of magnetic beads (Magnosphere MS300/Carboxyl, JSR) to which anti-delta GK antibodies were solid-phased, and this was shaken at 25 degrees C. for one hour.

human albumin = target: T3, human albumin (human, UniProt P02768 25-609); test: inferred from reduced antigen complex in human plasma (Gyrolab xP)
T3 construct: also called albumin in human plasma

mouse albumin = target: T4, mouse albumin (mouse, UniProt P07724 25-608); test: SPR (Biacore T200), antibody captured by anti-human Fc antibody, mouse albumin as analyte, 25 degrees C
T4 construct: also called recombinant mouse Albumin; mouse serum albumin
Method: Binding activities of the produced antibodies against mouse albumin were evaluated using Biacore T200 (Cytiva).
As the running buffer, 50 mM Na Phosphate (pH 7.4), 150 mM NaCl, 0.05% Tween20 was used, and the evaluation was performed at 25 degrees C. First, anti-human Fc antibody (Cytiva) was used as a ligand-capturing molecule. Anti-human Fc antibody (Cytiva) was solid-phased on a Series S Sensor Chip CM4 (Cytiva) using an Amine Coupling Kit (Cytiva). Antibody solution prepared using the running buffer was allowed to interact with this CM4 sensor chip to capture approximately 120 RU of the antibody. Mouse albumin (Bioscience) was diluted to 0 and 300 nM with the running buffer and allowed to bind to the captured antibody. The chip was regenerated using 3 M MgCl₂, and measurements were performed by repeatedly capturing the antibodies. Dissociation constant (KD) of each antibody for mouse albumin was calculated using Biacore T200 Evaluation Software 2.0. Specifically, the association rate constant ka (L/mol/s) and the dissociation rate constant kd (1/s) were calculated by global fitting of the sensorgrams obtained by measurement with the 1:1 Langmuir binding model, and the dissociation constant KD (mol/L) was calculated from these values.

human soluble IL-6R [4] = target: T1, human soluble IL-6R; test: in vivo KD in mouse plasma (albumin present), from total antibody, free and bound sIL6R 5 min after sIL6R; antibody 0.2 mg/kg IV
Method: as §1
Additionally, bound sIL6R in plasma was measured. The concentration of bound sIL6R in plasma was measured on an electrospray ionization mass spectrometer connected to a high-performance liquid chromatography (LC/ESI-MS/MS). First, H54//IC17 and sIL6R were mixed, and solutions for preparing the calibration curve of bound sIL6R were prepared at theoretical plasma concentrations of 0.0468, 0.467, 4.60, and 20.1 nmol/mL. […]

T2 sequence (P02770 25-608 limits assumed): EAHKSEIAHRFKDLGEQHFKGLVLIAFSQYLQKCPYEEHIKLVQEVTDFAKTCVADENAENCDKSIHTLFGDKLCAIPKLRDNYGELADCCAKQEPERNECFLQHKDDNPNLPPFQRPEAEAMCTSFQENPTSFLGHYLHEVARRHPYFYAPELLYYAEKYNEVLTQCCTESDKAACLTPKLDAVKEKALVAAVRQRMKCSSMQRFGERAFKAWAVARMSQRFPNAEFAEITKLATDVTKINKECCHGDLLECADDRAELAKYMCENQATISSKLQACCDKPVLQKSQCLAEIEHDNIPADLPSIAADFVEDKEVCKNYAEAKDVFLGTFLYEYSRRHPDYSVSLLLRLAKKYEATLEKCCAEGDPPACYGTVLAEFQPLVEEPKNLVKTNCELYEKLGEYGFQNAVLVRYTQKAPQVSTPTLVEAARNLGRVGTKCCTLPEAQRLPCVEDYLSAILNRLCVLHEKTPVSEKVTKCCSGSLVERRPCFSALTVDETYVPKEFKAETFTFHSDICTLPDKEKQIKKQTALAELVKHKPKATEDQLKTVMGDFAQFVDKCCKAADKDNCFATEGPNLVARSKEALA
T3 sequence (P02768 25-609 limits assumed): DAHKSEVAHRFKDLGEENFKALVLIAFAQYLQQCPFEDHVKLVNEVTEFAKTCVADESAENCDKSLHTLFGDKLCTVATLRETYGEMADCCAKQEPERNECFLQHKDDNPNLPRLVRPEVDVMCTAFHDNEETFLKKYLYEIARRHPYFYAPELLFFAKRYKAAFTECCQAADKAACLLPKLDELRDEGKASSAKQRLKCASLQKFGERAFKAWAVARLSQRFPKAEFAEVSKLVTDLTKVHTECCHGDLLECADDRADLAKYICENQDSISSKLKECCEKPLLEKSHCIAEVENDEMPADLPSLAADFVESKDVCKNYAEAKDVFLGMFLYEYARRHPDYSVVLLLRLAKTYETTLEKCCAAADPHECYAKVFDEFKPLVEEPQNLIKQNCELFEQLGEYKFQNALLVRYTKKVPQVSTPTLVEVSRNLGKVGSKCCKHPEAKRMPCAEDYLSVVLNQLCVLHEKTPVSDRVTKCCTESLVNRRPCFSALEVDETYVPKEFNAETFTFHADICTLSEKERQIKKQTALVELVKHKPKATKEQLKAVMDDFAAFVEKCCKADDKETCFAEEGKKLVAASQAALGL

decrease in the signal derived from the complex, compared to H54//IC17 (human soluble IL-6R [1]): 95%
binding result (rat albumin): binds
Kd (human soluble IL-6R [2]): 3.7 nM
koff (human soluble IL-6R [2]): 0.000779 s⁻¹
kon (human soluble IL-6R [2]): 210000 M⁻¹ s⁻¹
Kd (human soluble IL-6R [3]): 306 nM
binding result (human albumin): binds
Kd (mouse albumin): 19.4 nM
koff (mouse albumin): 0.00112 s⁻¹
kon (mouse albumin): 57600 M⁻¹ s⁻¹
Kd (human soluble IL-6R [4]): 141 nM
B1: ABD094(H/L)-H54//IC17 (bispecific antibody, human IgG1, kappa)
heavy 1: LAEAKEAANAELDSYGVSDFYKRLIDKAKTVEGVEALKDAILAALPQVQLQESGPGLVKPSETLSLTCAVSGYSISDDQAWSWVRQPPGEGLEWIGYISYSGITNYNPSLKGRVTISRDTSKNQFSLKLSSVTAADTAAYYCARSLARTTAMDYWGEGTLVTVSSASTKGPSVFPLAPSSKSTSGGTAALGCLVEDYFPEPVTVSWNSGALTSGVHTFPAVLQSSGLYSLSSVVTVPSSSLGTQTYICNVNHKPSNTKVDERVEPKSCDKTHTCPPCPAPELRRGPSVFLFPPKPKDTLMISRTPEVTCVVVDVSHEDPEVKFNWYVDGVEVHNAKTKPREEQYNSTYRVVSVLTVLHQDWLNGKEYKCKVSNKALPAPIEKTISKAKGQPREPQVCTLPPSREEMTKNQVSLSCAVKGFYPSDIAVEWESNGQPENNYKTTPPVLDSDGSFFLVSKLTVDKSRWQQGNVFSCSVMHEALHNHYTQKSLSLSP
light 1: LAEAKEAANAELDSYGVSDFYKRLIDKAKTVEGVEALKDAILAALPDIQMTQSPSSLSASVGDSVTITCQASQDISSYLNWYQQKPGKAPELLIYYGSELHSGVPSRFSGSGSGTDFTFTISSLEAEDAATYYCQQGNSLPYTFGQGTKVEIERTVAAPSVFIFPPSDRKLKSGTASVVCLLNNFYPREAKVQWKVDNALQSGNSQESVTEQDSKDSTYSLSSTLTLSKADYEKHKVYACEVTHQGLSSPVTKSFNRGEC
heavy 2: not shown
light 2: QVQLQQSGPQLVRPGASVKISCKASGYSFTSYWMHWVNQRPGQGLEWIGMIDPSYSETRLNQKFKDKATLTVDKSSSTAYMQLSSPTSEDSAVYYCALYGNYFDYWGQGTTLTVSSASVAAPSVFIFPPSDEQLKSGTASVVCLLNNFYPREAKVQWKVDNALQSGNSQESVTEQDSKDSTYSLSSTLTLSKADYEKHKVYACEVTHQGLSSPVTKSFNRGEC
notes: also called anti-IL6R albumin switch molecule

binding result (rat albumin): binds
Kd (human soluble IL-6R [2]): 2.02 nM
koff (human soluble IL-6R [2]): 0.000951 s⁻¹
kon (human soluble IL-6R [2]): 471000 M⁻¹ s⁻¹
Kd (human soluble IL-6R [3]): 13.4 nM
binding result (human albumin): binds
Kd (mouse albumin): 10.2 nM
koff (mouse albumin): 0.000443 s⁻¹
kon (mouse albumin): 43500 M⁻¹ s⁻¹
Kd (human soluble IL-6R [4]): 2 nM
B2: ABP(H/L).N13-H54//IC17 (bispecific antibody, human IgG1, kappa)
heavy 1: QRLMEDICLPRWGCLWEDDFGGGSQVQLQESGPGLVKPSETLSLTCAVSGYSISDDQAWSWVRQPPGEGLEWIGYISYSGITNYNPSLKGRVTISRDTSKNQFSLKLSSVTAADTAAYYCARSLARTTAMDYWGEGTLVTVSSASTKGPSVFPLAPSSKSTSGGTAALGCLVEDYFPEPVTVSWNSGALTSGVHTFPAVLQSSGLYSLSSVVTVPSSSLGTQTYICNVNHKPSNTKVDERVEPKSCDKTHTCPPCPAPELRRGPSVFLFPPKPKDTLMISRTPEVTCVVVDVSHEDPEVKFNWYVDGVEVHNAKTKPREEQYNSTYRVVSVLTVLHQDWLNGKEYKCKVSNKALPAPIEKTISKAKGQPREPQVCTLPPSREEMTKNQVSLSCAVKGFYPSDIAVEWESNGQPENNYKTTPPVLDSDGSFFLVSKLTVDKSRWQQGNVFSCSVMHEALHNHYTQKSLSLSP
light 1: QRLMEDICLPRWGCLWEDDFGGGSDIQMTQSPSSLSASVGDSVTITCQASQDISSYLNWYQQKPGKAPELLIYYGSELHSGVPSRFSGSGSGTDFTFTISSLEAEDAATYYCQQGNSLPYTFGQGTKVEIERTVAAPSVFIFPPSDRKLKSGTASVVCLLNNFYPREAKVQWKVDNALQSGNSQESVTEQDSKDSTYSLSSTLTLSKADYEKHKVYACEVTHQGLSSPVTKSFNRGEC
heavy 2: not shown
light 2: B1 light 2
notes: also called ABP(H/L)-H54//IC17
